The values that follow come from patent publication US20100189657A1, “INTRAMOLECULARLY QUENCHED FLUOROCHROME CONJUGATES AND METHODS OF USE” (THE GENERAL HOSPITAL CORPORATION, priority 2006, published 2010).

Molecules are shown by their SMILES. “Also recorded” adds a separate entry of the source.

The data set can be described thus: Aqueous solubility of the probes. It counts as physicochemical. The conditions noted are these: aqueous solutions. How it is done: The absorption spectra of equimolar solutions of the probes based on the absorption peak of the free dye, CyTE-777 are shown in FIG. 4. […] The absorption band due to dye aggregation becomes slightly weaker with increasing PEG chain length. […] To determine if the aggregated fluorophores lead to quenching, fluorescence spectra of all the three probes were measured and compared to the fluorescence spectrum of an equimolar solution of CyTE-777 (FIG. 5).
These cysteine proteases are known to be important in biological processes and have similar substrate selectivity. […] The Leu-Arg dipeptide cathepsin S substrate was previously reported to be partially but not completely selective to cathepsin S. The selectivity observed for cathepsin S in the present study is higher than what was expected from the literature reports.
On to `CC(C)C[C@H](NC(=O)CCNC(=O)CCOCCOCCOCCOCCNC(=O)CCSC1=C(/C=C/C2=[N+](CCCCS(=O)(=O)O)c3ccccc3C2(C)C)CCC/C1=C\C=C1\N(CCCCS(=O)(=O)O)c2ccccc2C1(C)C)C(=O)N[C@@H](CCCNC(=N)N)C(=O)NCCC(=O)NCCCC[C@H](NC(=O)CCNC(=O)[C@H](CCCNC(=N)N)NC(=O)[C@H](CC(C)C)NC(=O)CCNC(=O)CCOCCOCCOCCOCCNC(=O)CCSC1=C(/C=C/C2=[N+](CCCCS(=O)(=O)O)c3ccccc3C2(C)C)CCC/C1=C\C=C1\N(CCCCS(=O)(=O)O)c2ccccc2C1(C)C)C(=O)NCCCC[C@H](NC(=O)[C@H](CCCCNC(=O)CCNC(=O)[C@H](CCCNC(=N)N)NC(=O)[C@H](CC(C)C)NC(=O)CCNC(=O)CCOCCOCCOCCOCCNC(=O)CCSC1=C(/C=C/C2=[N+](CCCCS(=O)(=O)O)c3ccccc3C2(C)C)CCC/C1=C\C=C1\N(CCCCS(=O)(=O)O)c2ccccc2C1(C)C)NC(=O)CCNC(=O)[C@H](CCCNC(=N)N)NC(=O)[C@H](CC(C)C)NC(=O)CCNC(=O)CCOCCOCCOCCOCCNC(=O)CCSC1=C(/C=C/C2=[N+](CCCCS(=O)(=O)O)c3ccccc3C2(C)C)CCC/C1=C\C=C1\N(CCCCS(=O)(=O)O)c2ccccc2C1(C)C)C(=O)NCCC(=O)O` [CyPEG-1], for which the aqueous solubility result was “practically insoluble”.
For the molecule `CC(C)C[C@H](NC(=O)CCNC(=O)CCOCCOCCOCCOCCNC(=O)CCOCCOCCOCCOCCNC(=O)CCSC1=C(/C=C/C2=[N+](CCCCS(=O)(=O)O)c3ccccc3C2(C)C)CCC/C1=C\C=C1\N(CCCCS(=O)(=O)O)c2ccccc2C1(C)C)C(=O)N[C@@H](CCCNC(=N)N)C(=O)NCCC(=O)NCCCC[C@H](NC(=O)CCNC(=O)[C@H](CCCNC(=N)N)NC(=O)[C@H](CC(C)C)NC(=O)CCNC(=O)CCOCCOCCOCCOCCNC(=O)CCOCCOCCOCCOCCNC(=O)CCSC1=C(/C=C/C2=[N+](CCCCS(=O)(=O)O)c3ccccc3C2(C)C)CCC/C1=C\C=C1\N(CCCCS(=O)(=O)O)c2ccccc2C1(C)C)C(=O)NCCCC[C@H](NC(=O)[C@H](CCCCNC(=O)CCNC(=O)[C@H](CCCNC(=N)N)NC(=O)[C@H](CC(C)C)NC(=O)CCNC(=O)CCOCCOCCOCCOCCNC(=O)CCOCCOCCOCCOCCNC(=O)CCSC1=C(/C=C/C2=[N+](CCCCS(=O)(=O)O)c3ccccc3C2(C)C)CCC/C1=C\C=C1\N(CCCCS(=O)(=O)O)c2ccccc2C1(C)C)NC(=O)CCNC(=O)[C@H](CCCNC(=N)N)NC(=O)[C@H](CC(C)C)NC(=O)CCNC(=O)CCOCCOCCOCCOCCNC(=O)CCOCCOCCOCCOCCNC(=O)CCSC1=C(/C=C/C2=[N+](CCCCS(=O)(=O)O)c3ccccc3C2(C)C)CCC/C1=C\C=C1\N(CCCCS(=O)(=O)O)c2ccccc2C1(C)C)C(=O)NCCC(=O)O` [CyPEG-2], the aqueous solubility result is reported as “satisfactory aqueous solubility; also recorded: much higher aqueous solubility”.
With `CC(C)C[C@H](NC(=O)CCNC(=O)CCOCCOCCOCCOCCNC(=O)CCOCCOCCOCCOCCNC(=O)CCOCCOCCOCCOCCNC(=O)CCSC1=C(/C=C/C2=[N+](CCCCS(=O)(=O)O)c3ccccc3C2(C)C)CCC/C1=C\C=C1\N(CCCCS(=O)(=O)O)c2ccccc2C1(C)C)C(=O)N[C@@H](CCCNC(=N)N)C(=O)NCCC(=O)NCCCC[C@H](NC(=O)CCNC(=O)[C@H](CCCNC(=N)N)NC(=O)[C@H](CC(C)C)NC(=O)CCNC(=O)CCOCCOCCOCCOCCNC(=O)CCOCCOCCOCCOCCNC(=O)CCOCCOCCOCCOCCNC(=O)CCSC1=C(/C=C/C2=[N+](CCCCS(=O)(=O)O)c3ccccc3C2(C)C)CCC/C1=C\C=C1\N(CCCCS(=O)(=O)O)c2ccccc2C1(C)C)C(=O)NCCCC[C@H](NC(=O)[C@H](CCCCNC(=O)CCNC(=O)[C@H](CCCNC(=N)N)NC(=O)[C@H](CC(C)C)NC(=O)CCNC(=O)CCOCCOCCOCCOCCNC(=O)CCOCCOCCOCCOCCNC(=O)CCOCCOCCOCCOCCNC(=O)CCSC1=C(/C=C/C2=[N+](CCCCS(=O)(=O)O)c3ccccc3C2(C)C)CCC/C1=C\C=C1\N(CCCCS(=O)(=O)O)c2ccccc2C1(C)C)NC(=O)CCNC(=O)[C@H](CCCNC(=N)N)NC(=O)[C@H](CC(C)C)NC(=O)CCNC(=O)CCOCCOCCOCCOCCNC(=O)CCOCCOCCOCCOCCNC(=O)CCOCCOCCOCCOCCNC(=O)CCSC1=C(/C=C/C2=[N+](CCCCS(=O)(=O)O)c3ccccc3C2(C)C)CCC/C1=C\C=C1\N(CCCCS(=O)(=O)O)c2ccccc2C1(C)C)C(=O)NCCC(=O)O` [CyPEG-3] the entry was “satisfactory aqueous solubility”.
